Laboratory results as given in publication PMC6486636, “LARP4A recognizes polyA RNA via a novel binding mechanism mediated by disordered regions and involving the PAM2w motif, revealing interplay between PABP, LARP4A and mRNA”.

Experiments:
LARP4A NTD [1] = molecular target: T1, LARP4A NTD (Homo sapiens, UniProt Q71RC2 1-287); assay: MST; 25 C; agrees with EMSA; Kd only in figure; EMSA: 20 mM Tris pH 7.25, 200 mM KCl, 5% glycerol, 1 mM DTT, 0.1 mg/ml BSA, 0.01 mg/ml E. coli tRNA, on ice, gel at 4 C; MST: 20 mM Tris pH 7.25, 100 mM KCl, 0.2 mM EDTA, 1 mM DTT, 0.05% Tween-20, 25 C; details: protein: recombinant; tags: His tag (TEV) or His-SUMO, cleaved; label: 5' fluorescein (FAM); single strand
LARP4A NTR [2] = molecular target: T2, LARP4A NTR (Homo sapiens, UniProt Q71RC2 1-111); assay: as above; details: protein: recombinant; tags: His (TEV) or His-SUMO, cleaved; label: 5' fluorescein (FAM); single strand
LARP4A 1-79 = LARP4A 1-79 (Homo sapiens, UniProt Q71RC2 1-79); assay: EMSA; up to 200 uM protein; EMSA: 20 mM Tris pH 7.25, 200 mM KCl, 5% glycerol, 1 mM DTT, 0.1 mg/ml BSA, 0.01 mg/ml E. coli tRNA, on ice, gel at 4 C; MST: 20 mM Tris pH 7.25, 100 mM KCl, 0.2 mM EDTA, 1 mM DTT, 0.05% Tween-20, 25 C; details: protein: recombinant; tags: His-SUMO, cleaved; label: 5' 32P (EMSA); unlabelled (NMR, native MS); single strand
LARP4A 1-50 = molecular target: T3, LARP4A 1-50 (Homo sapiens, UniProt Q71RC2 1-50); assay: as above; details: protein: recombinant; tags: His-SUMO, cleaved; label: 5' 32P (EMSA); unlabelled (NMR, native MS); single strand
T3 chain: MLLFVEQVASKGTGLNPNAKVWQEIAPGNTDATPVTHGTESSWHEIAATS

LARP4A La module = LARP4A La module (Homo sapiens, UniProt Q71RC2 111-287); assay: NMR; small shifts, almost exclusively RRM1; 100 mM KCl; EMSA: 20 mM Tris pH 7.25, 200 mM KCl, 5% glycerol, 1 mM DTT, 0.1 mg/ml BSA, 0.01 mg/ml E. coli tRNA, on ice, gel at 4 C; MST: 20 mM Tris pH 7.25, 100 mM KCl, 0.2 mM EDTA, 1 mM DTT, 0.05% Tween-20, 25 C; details: protein: recombinant; tags: His tag, TEV-cleaved; label: 5' 32P (EMSA); unlabelled (NMR, native MS); single strand
LARP4A NTR [3] = molecular target: T2, LARP4A NTR; assay: EMSA; with competitor tRNA; retains majority of affinity; Kd only in figure; EMSA: 20 mM Tris pH 7.25, 200 mM KCl, 5% glycerol, 1 mM DTT, 0.1 mg/ml BSA, 0.01 mg/ml E. coli tRNA, on ice, gel at 4 C; MST: 20 mM Tris pH 7.25, 100 mM KCl, 0.2 mM EDTA, 1 mM DTT, 0.05% Tween-20, 25 C; details: protein: recombinant; tags: His (TEV) or His-SUMO, cleaved; label: 5' 32P (EMSA); unlabelled (NMR, native MS); single strand
LARP4A NTD [4] = molecular target: T1, LARP4A NTD; assay: EMSA; with competitor tRNA; low micromolar Kd, >100-fold tighter than La module; value only in figure; EMSA: 20 mM Tris pH 7.25, 200 mM KCl, 5% glycerol, 1 mM DTT, 0.1 mg/ml BSA, 0.01 mg/ml E. coli tRNA, on ice, gel at 4 C; MST: 20 mM Tris pH 7.25, 100 mM KCl, 0.2 mM EDTA, 1 mM DTT, 0.05% Tween-20, 25 C; details: protein: recombinant; tags: His tag (TEV) or His-SUMO, cleaved; label: 5' 32P (EMSA); unlabelled (NMR, native MS); single strand

LARP4A La module, sequence (Q71RC2 111-287): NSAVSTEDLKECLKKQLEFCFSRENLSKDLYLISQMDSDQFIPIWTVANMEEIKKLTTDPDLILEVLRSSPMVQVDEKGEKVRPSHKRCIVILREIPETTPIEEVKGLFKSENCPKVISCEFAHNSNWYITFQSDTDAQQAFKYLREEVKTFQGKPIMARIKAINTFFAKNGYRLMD

AAAAAAAAAAAAAAAAAAAA (ssRNA) [5'FAM-oligoA20]
binding result (LARP4A NTD [1]): binds
binding result (LARP4A NTR [2]): binds

AAAAAAAAAAAAAAA (ssRNA) [oligoA15]
binding result (LARP4A 1-79): no binding
binding result (LARP4A 1-50): no binding
binding result (LARP4A La module): binds
binding result (LARP4A NTR [3]): binds
binding result (LARP4A NTD [4]): binds
